In test [1] the target is T1, His-PP1γ (UniProt P36873 1-323).
T1 construct: PP1γ, catalytic subunit of protein phosphatase 1, gamma isoform; D1:p17 gives a molecular weight of 36965 Da for PP1; also called PP1g
Briefly: ITC; peptide (approximately 450 µM, syringe) titrated into PP1γ (~35 µM, cell); 25°C; 50 mM sodium phosphate, 150 mM NaCl, 0.5 mM TCEP, pH 7.5; single-site model. As to conditions: both partners purified. Background: ITC needs no label: the signal is the heat of the interaction.
T1 sequence (P36873 whole entry, canonical isoform): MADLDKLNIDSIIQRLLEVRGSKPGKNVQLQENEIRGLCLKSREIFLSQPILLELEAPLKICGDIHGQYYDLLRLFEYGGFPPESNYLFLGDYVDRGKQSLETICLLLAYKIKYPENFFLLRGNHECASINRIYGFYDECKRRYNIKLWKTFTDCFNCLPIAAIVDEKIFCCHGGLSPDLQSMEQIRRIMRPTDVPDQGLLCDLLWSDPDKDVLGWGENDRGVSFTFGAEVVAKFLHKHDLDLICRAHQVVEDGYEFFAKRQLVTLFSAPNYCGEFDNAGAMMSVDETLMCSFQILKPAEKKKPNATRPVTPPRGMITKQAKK

For test [2], the target named is His-PP1γ (UniProt P36873 1-323). The test is described as above. As to conditions: both partners purified.
Target sequence in this assay (P36873 whole entry, canonical isoform): as above

Non-standard residues stand in square brackets, D forms with d. No end group written: not given here. pS = N[C@@H](COP(=O)(O)O)C(=O)O

The record followed here is paper PMC10698503 (Molecular Systems Biology, 2023).

B1: Sororin 76-96 peptide PRRSPRISFFLEKENEPPGREW (peptide)
peptide: PRRSPRISFFLEKENEPPGREW
notes: Sororin (CDCA5) 76-96 by the label; also called CDCA5; source: synthetic peptide, bought: Peptide 2.0 Inc
As for B1, in test [1], the Kd (commonly the concentration at which binding is half-saturated) worked out at 2530 ± 110 nM.

B2: Nipp1 197-209 peptide AKNSRVTFSEDDEIW (peptide)
peptide: AKNSRVTFSEDDEIW
The molecule B2 returned a Kd in test [1] of 190 ± 10 nM.

B3: KNL1 1441-1455 peptide KLNSKRVSFKLPKDQW (peptide)
peptide: KLNSKRVSFKLPKDQW
notes: KNL1 (CASC5) 1441-1455 by the label; also called CASC5; source: synthetic peptide, bought: Peptide 2.0 Inc
In test [1], B3 displayed an equilibrium dissociation constant (Kd) of 120 ± 10 nM.

B4: Sororin 73-91 pS83 peptide RRSPRI(pS)FFLEKENEW (peptide)
chain: RRSPRI[pS]FFLEKENEW
As for B4, the Kd in test [2] is 1360 ± 10 nM.
